From paper PMC8623652

Columns and labels:
[1] = molecular target: NCS-1 in HEK293 cells transfected with NCS-1-pCI-neo (UniProt P62166); assay: Western blotting of cell lysates under non-reducing conditions (disulfide dimer); HEK293 cells transfected with NCS-1, 10 mM H2O2 for 30 min or longer, with or without Ca2+/ionomycin, EGTA, or Zn2+ with chloroquine; lysis with 10 mM iodoacetamide; dimer fraction by densitometry
[2] = molecular target: Neuronal calcium sensor-1 (NCS-1), recombinant, myristoylated, reduced monomer (UniProt P62166); assay: SEC; analytical gel filtration on Superdex 75 10/300 GL, 20 mM Tris-HCl pH 8.0, 150 mM NaCl, 1 mM DTT (non-oxidizing), with 0.1 mM ZnCl2 or 1 mM EGTA
[3] = molecular target: Chimera GRK1^N-C, fusion protein containing regulatory domains of GRK1 (GRK1 1-191,512-557) (UniProt P28327); assay: SPR; GRK1^N-C immobilised by amine coupling on a ProteOn GLH chip (up to 12,000 RU); analyte NCS-1 or dNCS-1 0.5 to 20 μM; 25 °C; 10 mM HEPES pH 7.4, 150 mM NaCl, 1 mM CaCl2, 0.05% Tween 20; global fits by the heterogeneous ligand model (both) or the bivalent analyte model (dNCS-1)
[4] = molecular target: Neuronal calcium sensor-1 (NCS-1), recombinant, myristoylated, reduced monomer (UniProt P62166); assay: SDS-PAGE under non-reducing conditions (disulfide dimer); 20 μM reduced NCS-1 with 0.1–1000 μM H2O2, 20 mM Tris-HCl pH 8.0, 150 mM NaCl, with 1 mM MgCl2, 1 mM CaCl2, 0.1 mM ZnCl2 or their combinations (1% SDS in controls), 37 °C, 30 min; densitometry
[5] = molecular target: Neuronal calcium sensor-1 (NCS-1), recombinant, myristoylated, reduced monomer (UniProt P62166); assay: SDS-PAGE under non-reducing conditions (disulfide dimer); preparation of dNCS-1: NCS-1 2 mg/mL dialysed against 20 mM Tris-HCl pH 8.0, 150 mM NaCl, 1 mM H2O2, 4 °C, 3 h
[6] = molecular target: Neuronal calcium sensor-1 (NCS-1), recombinant, myristoylated, reduced monomer (UniProt P62166); assay: redox equilibrium with GSSG/GSH, SDS-PAGE under non-reducing conditions; 1.5 µM dNCS-1, 50 mM HEPES pH 7.4, 100 mM KCl, 0.1 mM CaCl2 or 1 mM MgCl2, 0.1 mM GSSG and 8.8 µM–72.4 mM GSH, anaerobic, 35 °C, 62 h; densitometry

Chain of UniProt P28327 (P28327 other isoform, or with tags, fused parts or gaps mutant): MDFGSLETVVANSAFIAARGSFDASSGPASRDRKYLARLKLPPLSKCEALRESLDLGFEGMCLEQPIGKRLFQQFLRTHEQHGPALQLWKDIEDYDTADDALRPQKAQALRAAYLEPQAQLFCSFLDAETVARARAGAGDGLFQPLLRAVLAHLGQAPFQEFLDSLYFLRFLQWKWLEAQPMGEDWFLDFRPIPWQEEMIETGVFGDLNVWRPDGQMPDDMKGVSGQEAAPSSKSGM

Substance	dimer content (prolonged incubation with Zn2+/H2O2) [1]	fraction of dNCS-1 of total protein (H2O2 after Zn2+ with chloroquine) [1]	fraction of the dimer of total NCS-1 (10 mM H2O2, 30 min) [1]	stoichiometry N [1]	stoichiometry N [2]	KD 1 (heterogeneous ligand model) [3]	KD 2 (heterogeneous ligand model) [3]	koff 1 (heterogeneous ligand model) [3]	koff 2 (heterogeneous ligand model) [3]	kon 1 (heterogeneous ligand model) [3]	kon 2 (heterogeneous ligand model) [3]	dimer content (Zn2+-bound NCS-1, H2O2) [4]	dimer fraction of total protein (the forms of Figure 4B, H2O2) [4]	stoichiometry N [4]	dNCS-1 in the dialysis mixture (1 mM H2O2) [5]	dNCS-1 of total NCS-1 (Ca2+, Eh GSSG/GSH ~ −220 mV) [6]
NCS-1 in HEK293 cells transfected with NCS-1-pCI-neo (from UniProt P62166 1-190) (natural protein)	25 to 30%	9%	4 to 5%	2												
Neuronal calcium sensor-1 (NCS-1), recombinant, myristoylated, reduced monomer (from UniProt P62166 1-190) (natural protein)					2	590 nM	2700 nM	0.00016 s⁻¹	0.0044 s⁻¹	267 M⁻¹ s⁻¹	1910 M⁻¹ s⁻¹	75%	< 30%	2	80%	5 to 10%
